We go through one molecule from patent US20090098142A1 (published 2009).

The target of the test is T1, cynomolgus monkey IL-13 (NHP IL-13) (cynomolgus monkey, UniProt Q5I6E4 21-132 (Macaca thibetana entry)).
T1 construct: Also used here for the IL-13 found in cynomolgus monkey serum; also called non-human primate IL-13; cynomolgus IL-13
T1 chain: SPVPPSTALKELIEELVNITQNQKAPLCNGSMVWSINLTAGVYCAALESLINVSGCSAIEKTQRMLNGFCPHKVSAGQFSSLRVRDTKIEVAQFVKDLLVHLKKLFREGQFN
The test can be described thus: direct NHP IL-13 binding ELISA. An excerpt: The humanized MJ 2-7 V3 and V4 were produced in COS cells by combining hMJ 2-7 VH V1 with hMJ 2-7 VL V3 and V4. The antigen binding properties of the antibodies were examined by direct NHP IL-13 binding ELISA.

B1: humanized MJ 2-7 V3 (hMJ 2-7 VH V1 with hMJ 2-7 VL V3) (antibody, V domains shown)
VH: QVQLVQSGAEVKKPGASVKVSCKASGFNIKDTYIHWVRQAPGQRLEWMGRIDPANDNIKYDPKFQGRVTITRDTSASTAYMELSSLRSEDTAVYYCARSEENWYDFFDYWGQGTLVTVSS
VL: DVVMTQSPLSLPVTLGQPASISCRSSQSLVYSDGNTYLNWFQQRPGQSPRRLIYKVSNRFSGVPDRFSGSGSGTDFTLKISRVEAEDVGVYYCFQGSHIPYTFGGGTKVEIK
notes: Produced in COS cells; VL V3: DPK18 with human germline CDR1 and CDR2 and the CDR3 of mouse MJ2-7; also called hMJ2-7 V3; Version 3
As to B1, the binding result is given as “no binding”.
